The target in experiment [1] is prostate specific antigen (PSA) (Homo sapiens, UniProt P07288). Briefly: Protease cleavage assay (SDS-PAGE) with prostate specific antigen. Type of experiment: biochemical. The following applies: incubation 2-72 hours. From the text:
(§1) Reactive loop cleavage is marked by a characteristic 4 kDa change in molecular weight following release of a peptide when the R-state CBG is unfolded, such as when it is subjected to the denaturing conditions of an SDS-PAGE [14], [22]. We used this as a convenient means by which to check the engineered protein's protease specificity and, as a corollary, its site specificity.

Experiment [2] addresses T1, thrombin (Homo sapiens, UniProt P00734).
T1 construct: causes the zymogen, prothrombin, to be cleaved to produce enzymatically-active thrombin
Briefly: Protease cleavage assay (SDS-PAGE) with thrombin. Type of experiment: biochemical. Conditions: protease:CBG 1:100, 37°C, half an hour. Here is the method:
as §1, with “To determine if a particular target protease is able to cleave the reactive centre loop of an engineered CBG variant, the protease was incubated with CBG at a molar ratio of 1∶100 at 37°C for half an hour unless otherwise specified. Reactive” for “Reactive”

In experiment [3] the target is T2, human neutrophil elastase (Homo sapiens, UniProt P08246).
T2 sequence (P08246 30-267): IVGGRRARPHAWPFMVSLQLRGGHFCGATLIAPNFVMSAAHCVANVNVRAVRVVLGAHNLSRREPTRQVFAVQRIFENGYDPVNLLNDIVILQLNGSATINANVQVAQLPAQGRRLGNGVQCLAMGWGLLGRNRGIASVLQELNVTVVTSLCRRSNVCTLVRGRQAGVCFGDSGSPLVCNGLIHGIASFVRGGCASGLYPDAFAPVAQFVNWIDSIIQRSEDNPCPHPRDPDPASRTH
Briefly: Protease cleavage assay (SDS-PAGE) with human neutrophil elastase. Type of experiment: biochemical. The following applies: protease:CBG 1:100, 37°C. Here is the method: as §1, with “To determine if a particular target protease is able to cleave the reactive centre loop of an engineered CBG variant, the protease was incubated with CBG at a molar ratio of 1∶100 at 37°C for half an hour unless otherwise specified. Reactive” for “Reactive”

A short description of experiment [4]: Fluorimetric titration (intrinsic fluorescence quenching) of CBG with cortisol. Type of experiment: binding. The following applies: for Kd / Fold change in Kd (cortisol) on reactive centre loop cleavage, S to R: physiological temperature (37°C); for Fold change in Kd (cortisol) on reactive centre loop cleavage, S to R: disulphide mutants in absence of TCEP. Here is the method:
CBG is known to bind cortisol with a one-to-one stoichiometry, [19]. Therefore, the dissociation constant, which is a measure of binding affinity, is given by the following equation: [drawing 1] (1) where [E]f is the concentration of free CBG, [L]f is the concentration of free ligand, and [E·L] is the concentration of the CBG-ligand complex.
(§2) Fluorescence spectroscopy was used to study the CBG-ligand interactions. Experiments were performed on an LS55 120V fluorescence spectrometer (Perkin Elmer), and the data were read and recorded using their proprietary FL WinLab software. For binding studies of CBG with cortisol, the excitation wavelength was set at 280 nm and the emission was detected at 350 nm, with a 315 nm cut-off filter used to prevent the excitation laser from leaching into the emission channel. For the binding studies of engineered CBG with L-T4-thyroxine-6-carboxyfluorescein, the excitation wavelength was set at 495 nm and emission was recorded at 520 nm whilst applying a 515 nm cut-off filter.
The cortisol stock solution was prepared by dissolving lyophilised cortisol (Sigma Aldrich) in 80% ethanol to make a 500 µM solution, which was then diluted with water to make solutions of 20, 40 and 80 µM, with water being used as a negative control. Aliquots of the ligand solutions were then titrated into 800 µl of a 200 nM solution of CBG made by diluting the protein stock with a buffer containing 10 mM Tris-HCl, pH 7.4, 150 mM NaCl, 1 mM EDTA, 0.1% v/v PEG 8000, and the decrease in fluorescence due to quenching was measured.
(§3) In both cases, the data were fitted using Prism 5 (GraphPad Software) to the following equation to obtain the dissociation constant, Kd: [drawing 2] (2) where ΔF is the fluorescence change, ΔFM is the maximum change in fluorescence signal, [L]t is the total concentration of ligand added and [E]t is the total protein concentration.

A short description of experiment [5]: Fluorimetric titration of L-T4-thyroxine-6-carboxyfluorescein with engineered CBG. It is filed as binding. The following applies: 25°C. Here is the method:
as §2
L-T4-thyroxine-6-carboxyfluorescein was previously synthesised and purified as a 1.09 µM solution with acetonitrile as its solvent. This was diluted into a 5 nM solution with a buffer containing 10 mM Tris-HCl, pH 7.4, 150 mM NaCl, 1 mM EDTA, 0.1% v/v PEG 8000. Aliquots of the engineered CBG were titrated into 800 µl of this solution, and increments in fluorescence signal were monitored.
as §3

Experiment [6] is described as follows: Biolayer interferometry of CBG on immobilised cortisol (ForteBio Octet Red). Conditions: CBG 0-10000 nM. Type of experiment: binding. The procedure: Biolayer interferometry was carried out on a ForteBio Octet Red apparatus (ForteBio, Menlo Park, California, USA) to determine binding affinity where fluorescence quenching experiments would not work due to mutation of Trp 371, which is the main source of intrinsic fluorescence in the binding pocket. The system uses a change in interference pattern of reflected light to detect the change in optical thickness of the sensor tip. Cortisol was immobilised on the biosensor tip surface by forming an adduct of hydrocortisone 21-hemisuccinate and a pentylamine-biotin linker through an amide bond, then allowing the biotin moiety on this cortisol adduct to bind to the streptavidin-conjugated biosensor tip. The cortisol-conjugated sensors were immersed into wells of a shaking microtitre plate containing solutions of CBG at 0, 200, 500, 1000, 2500, 5000 and 10000 nM concentrations in a 10 mM Tris-HCl, pH 7.4, 150 mM NaCl, 1 mM EDTA, 0.1 mg/ml bovine serum albumin buffer, and analysed against an internal reference.

Where [7] appears, read: intact S-state, read-out: Kd for cortisol, S (uncleaved) conformation.
[8] abbreviates: reactive centre loop-cleaved R-state, read-out: Kd for cortisol, R (cleaved) conformation.

In general, Kd refers to the free concentration of one partner at which half of the binding sites on the other are occupied at equilibrium, for simple one-to-one binding.

Positions count from the first letter of the chain named. Names and notes keep the numbering of the source.

prostate specific antigen (PSA), sequence (P07288 25-261): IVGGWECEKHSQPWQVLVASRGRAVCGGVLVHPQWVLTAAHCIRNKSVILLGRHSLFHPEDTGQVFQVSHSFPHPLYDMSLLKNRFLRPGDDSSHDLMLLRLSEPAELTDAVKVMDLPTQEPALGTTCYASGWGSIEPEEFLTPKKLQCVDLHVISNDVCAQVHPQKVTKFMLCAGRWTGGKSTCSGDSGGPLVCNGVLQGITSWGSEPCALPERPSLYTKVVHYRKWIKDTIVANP

In the case of “SALLSSDI: CBG variant with reactive centre loop segment STGVTLNL mutated to SALLSSDI (PSA substrate) (EEGVDTAGSALLSSDITSKPII)”, the “Cleavage of reactive centre loop by PSA” value in experiment [1] is “cleavage of their respective reactive centre loops”.

B1: CBG-T349R: Human CBG with P1 threonine of reactive centre loop mutated to arginine (protein, UniProt P08185 23-405, looked up, variant T349R)
Corticosteroid-binding …: MDPNAAYVNMSNHHRGLASANVDFAFSLYKHLVALSPKKNIFISPVSISMALAMLSLGTCGHTRAQLLQGLGFNLTERSETEIHQGFQHLHQLFAKSDTSLEMTMGNALFLDGSLELLESFSADIKHYYESEVLAMNFQDWATASRQINSYVKNKTQGKIVDLFSGLDSPAILVLVNYIFFKGTWTQPFDLASTREENFYVDETTVVKVPMMLQSSTISYLHDSELPCQLVQMNYVGNGTVFFILPDKGKMNTVIAALSRDTINRWSAGLTSSQVDLYIPKVTISGVYDLGDVLEEMGIADLFTNQANFSRITQDAQLKSSKVVHKAVLQLNEEGVDTAGSTGVTLNLRSKPIILRFNQPFIIMIFDHFTWSSLFLARVMNPV
For the molecule B1, the “Cleavage of reactive centre loop by thrombin” value is “same susceptibility to cleavage by thrombin as the CBG-antitrypsinPittsburgh chimera” in experiment [2] and “successfully cleaved by thrombin” in experiment [2] (listed as CBG-Thr349Arg). Besides, the “Cleavage by human neutrophil elastase” value in experiment [3] is listed as “further engineering would be required to remove elastase cleavage”.

B2: P1-Arg + V336L: Human CBG with P14 Val336Leu on T349R (P1 Arg) background, thrombin-cleavable (protein, UniProt P08185 23-405, looked up, variant V336L T349R)
Corticosteroid-binding …: B1 Corticosteroid-binding … with V336L
Consider B2, for which the Kd in experiment [4] (setting [7]) turned out to be 295 ± 44 nM; in experiment [4] (setting [8]) it was 2420 ± 200 nM. In addition, the “Fold change in Kd (cortisol) on reactive centre loop cleavage, S to R” value (“Fold change in Kd (cortisol)” below) in experiment [4] was determined as 8.2 fold.

B3: P1-Arg + S100C-V236C-V336I: Human CBG combining S100C-V236C disulphide and V336I on T349R background (protein, UniProt P08185 23-405, looked up, variant S100C V236C V336I T349R)
Corticosteroid-binding …: B1 Corticosteroid-binding … with S100C, V236C, V336I
Turning to B3, the Kd was found to be 297 ± 40 nM in experiment [4] (setting [7]) and 2260 ± 320 nM in experiment [4] (setting [8]). In addition, the “Fold change in Kd (cortisol)” value in experiment [4] is listed as 7.6 fold.

B4: CBG-Trp371Arg: Human CBG with binding pocket Trp 371 mutated to arginine (protein, UniProt P08185 23-405, looked up, variant W371R)
Corticosteroid-binding …: B1 Corticosteroid-binding … with R349T, W371R
In experiment [5], B4 gave a Kd of 840 nM. Besides, the “Affinity for cortisol by biolayer interferometry” value in experiment [6] is reported as “no measurable affinity for cortisol”.

B5: CBG-Trp371Ala: Human CBG with binding pocket Trp 371 mutated to alanine (protein, UniProt P08185 23-405, looked up, variant W371A)
Corticosteroid-binding …: B1 Corticosteroid-binding … with R349T, W371A
B5: in experiment [6], the “Affinity for cortisol by biolayer interferometry” value is listed as “no detectable affinity for cortisol”.

B6: P1-Arg + V336I: Human CBG with P14 Val336Ile on T349R (P1 Arg) background, thrombin-cleavable (protein, UniProt P08185 23-405, looked up, variant V336I T349R)
Corticosteroid-binding …: B1 Corticosteroid-binding … with V336I
For B6, the values for the Kd in experiment [4] (setting [7]) and in experiment [4] (setting [8]) were 326 ± 46 nM and 3420 ± 440 nM, respectively. Also, the “Fold change in Kd (cortisol)” value in experiment [4] is given as 10 fold.

B7: P1-Arg + S100C-V236C-V336L: Human CBG combining S100C-V236C disulphide and V336L on T349R background (protein, UniProt P08185 23-405, looked up, variant S100C V236C V336L T349R)
Corticosteroid-binding …: B1 Corticosteroid-binding … with S100C, V236C, V336L
For B7, the Kd in experiment [4] (setting [7]) was determined as 252 ± 17 nM; in experiment [4] (setting [8]), 1600 ± 320 nM. The “Fold change in Kd (cortisol)” value in experiment [4] was determined as 6.4 fold.

B8: P1-Arg + S100C-V236C: Human CBG with Ser100Cys/Val236Cys disulphide mutations on T349R background (PDB 4C41, cleaved) (protein, UniProt P08185 23-405, looked up, variant S100C V236C T349R)
Corticosteroid-binding …: B1 Corticosteroid-binding … with S100C, V236C
Turning to B8, the “Change in cortisol binding affinity after reactive loop cleavage in presence of TCEP” value in experiment [4] (37°C, reducing agent TCEP present) is “very similar to that of wild-type CBG”. The Kd is 278 ± 64 nM in experiment [4] (setting [7]) and 1800 ± 49 nM in experiment [4] (setting [8]). For the same molecule, in experiment [4], the “Fold change in Kd (cortisol)” value is given as 6.5 fold.

B9: TBG: Thyroxine binding globulin, hormone-carrying serpin, comparator (protein, UniProt P05543 21-415, looked up)
Thyroxine-binding globulin: ASPEGKVTACHSSQPNATLYKMSSINADFAFNLYRRFTVETPDKNIFFSPVSISAALVMLSFGACCSTQTEIVETLGFNLTDTPMVEIQHGFQHLICSLNFPKKELELQIGNALFIGKHLKPLAKFLNDVKTLYETEVFSTDFSNISAAKQEINSHVEMQTKGKVVGLIQDLKPNTIMVLVNYIHFKAQWANPFDPSKTEDSSSFLIDKTTTVQVPMMHQMEQYYHLVDMELNCTVLQMDYSKNALALFVLPKEGQMESVEAAMSSKTLKKWNRLLQKGWVDLFVPKFSISATYDLGATLLKMGIQHAYSENADFSGLTEDNGLKLSNAAHKAVLHIGEKGTEAAAVPEVELSDQPENTFLHPIIQIDRSFMLLILERSTRSILFLGKVVNPTEA
Turning to B9, in experiment [5], binding was characterised by a dissociation constant (Kd) of 0.73 nM.

Values taken from PMC4245140, “Towards Engineering Hormone-Binding Globulins as Drug Delivery Agents” (PLoS ONE, 2014).
